Source: PMC10383791, “Evaluation of [^18F]AlF-EMP-105 for Molecular Imaging of C-Met” (Pharmaceutics, 2023)
Entries after “also recorded” stand apart in the source; their conditions may differ. Bridge positions count the residues as written; N and C are the ends. Ends that are not written are not given here. Peptide text beside a SMILES is read from it. * marks the point of attachment. NOTA = O=C(O)CN1CCN(CC(=O)O)CCN(CC(=O)*)CC1

What was measured:
physchem = assay: physchem
Procedure: (§1) Analytical radio-HPLC chromatograms were obtained using an Agilent 1200 series instrument equipped with a flow-ram detector (Lablogic, Sheffield, UK), and integrated using Laura 6 software (Lablogic, Sheffield, UK). Column: phenomenex Aeris^TM 3.6 µm WIDEPORE C4 200 Å. Mobile phase: 0.1% TFA H2O:MeCN 95:5 v/v to 5:95 v/v, 0.8 mL/min flow rate.
(§2) A fraction of purified [^18F]AlF-EMP-105 (10 MBq in ~10 µL EtOH) was incubated, respectively, in 1000 µL of EtOH, PBS, RPMI, human serum and EDTA (0.02% in 0.5 mM DPBS) at 37 °C, and analysed by RP-HPLC at 1, 2, 3, and 4 h time points. For stability towards radiolysis, aliquots of >2 GBq of purified [^18F]AlF-EMP-105 eluted from the cartridge in ethanol (75% in 10 mM H3P0_4) or formulated in PBS solution containing 7.5% ethanol and 5 mg/mL (10 mL) of 4-aminobenzoic acid (PABA) as radioprotectant were analysed by RP-HPLC.

[1] = dynamic PET 60 min, TACs, healthy mice, i.v.
Procedure: Female BALB/c mice (6–8 weeks old) were anaesthetized with 2% isoflurane/O2. Imaging was performed using a Siemens Inveon small-animal multimodality PET/CT system (Siemens Medical Solutions USA, Inc., Knoxville, TN, USA). After completion of the CT scan, [^18F]AlF-EMP-105 (4.6 ± 1.2 MBq) was injected intravenously via the lateral tail vein. Dynamic emission scans were acquired in list-mode format for 60 min. Image data were processed as 0.5 mm sinogram bins and 33 time-frames, and reconstructed using the 2D-ordered subsets expectation maximization (2D-OSEM) algorithm with CT-based attenuation correction. The following frame durations were used: 12 × 5 s, 4 × 15 s, 6 × 30 s, and 11 × 300 s. Images were analysed using Inveon Research Workplace software (Siemens Healthcare Molecular Imaging, Knoxville, TN, USA). PET and CT images were co-registered and used to draw 3-dimensional regions of interests (ROIs) over tissues to obtain time–activity curves (TACs). Decay-corrected tissue time versus radioactivity curves (TACs) were generated and normalized to whole-body activity to obtain normalized uptake values (NUVs).

[2] = Radioactive metabolite analysis in tissues by radio-HPLC; details: mouse i.v., mean ± s.d., n = 3
Procedure: For metabolite analysis, radio-HPLC chromatograms were obtained using an Agilent 1100 system equipped with an in-line posiRAM metabolite detector (Lablogic, Sheffield, UK). The same column and mobile phase were used.
In female BALB/c mice at 5 and 30 min p.i. of [^18F]AlF-NOTA-EMP-105, four key tissues (blood plasma, liver, kidney and urine) were analysed for radioactive metabolites by radio-HPLC. The retention time of free [^18F]fluoride and the parent compound [^18F]AlF-EMP-105 were determined by injecting a pure sample of each onto the metabolite radio-HPLC system.
The liver and kidneys were excised, and homogenised in ice cold MeCN:H2O (1 mL, 1:2 v/v) using a Precellys tissue homogeniser fitted with a Cryolys cooling module (Stretton Scientific Ltd., Derbyshire, UK). The homogenate was centrifuged (13,000× g, 5 min), the supernatant was removed, filtered (0.22 µm syringe filter) and diluted in water prior to RP-HPLC analysis. Urine was diluted in water and filtered prior to HPLC analysis. Plasma was obtained from whole blood by centrifugation (2000× g, 10 min) to separate the blood cells from the plasma. Plasma were precipitated with ice cold MeCN:H2O (1 mL, 1:2 v/v), and centrifuged (13,000× g, 5 min) to pellet the proteins. The supernatant was filtered and diluted in water for radio-HPLC analysis. The HPLC injection loop was washed with MeCN:H2O 1:1 v/v (1 mL) and then 5:95 v/v (1 mL) between each injection. The extraction efficiency from each tissue sample was determined by counting the activity (counts per minute, CPM) of a small aliquot (20 µL) of the supernatant of a known volume and the whole protein pellet, in a γ-counter.

in vitro = details: human, human serum
Procedure: as §1, §2

HEPG2a [3] = assay: In vitro radioactive uptake with and without EMI-137 blocking; format: cell-based; details: HEPG2a (negative control); ~0.74 MBq, 60 min, 37 °C; gamma counting; mean ± SEM
Procedure: (§3) H1975 (non-small cell lung cancer), HEPG2a (hepatocellular carcinoma), HT29 (colorectal cancer) were purchased from ATCC. OE21 (oesophageal squamous cell carcinoma) was obtained from Prof George Hanna. H1975 and OE21 cells were maintained in RPMI-1640 media (Sigma-Aldrich) supplemented with 10% fetal calf serum (Sigma-Aldrich), 1% L-glutamine, and 2% penicillin/streptomycin (Sigma-Aldrich). HEPG2a and HT29 cells were cultured in DMEM (Sigma-Aldrich) containing 10% fetal calf serum, 1% L-glutamine, and 2% penicillin/streptomycin. All cell lines were cultured at 37 °C and 5% CO2.
(§4) Cells were seeded at appropriate densities (~500,000 cells/well in a 6-well plate) and allowed to attach overnight. On the day of uptake, cells were washed three times with warm PBS and incubated with 1 mL of fresh media containing approximately 0.74 MBq of [^18F]AlF-EMP-105, with or without 100× molar equivalent of EMI-137 (blocking compound), in a humidified condition with 5% CO2 at 37 °C for 60 min. After 60 min of incubation, the cells were washed with ice-cold PBS (3 times), then lysed in 1 mL of RIPA buffer for 10 min on ice. Following this step, radioactivity from 800 µL of lysate from each sample was counted on a WIZARD2® Automatic Gamma Counter. To determine the specificity of uptake, data were expressed as a percentage of radioactivity incorporated into cells, in untreated cells compared to cells blocked with EMI-137.

HT29 [4] = assay: as above; format: cell-based; details: ~0.74 MBq, 60 min, 37 °C, gamma counting, mean ± SEM
Procedure: as §3, §4

OE21 [5] = assay: as above; format: cell-based; details: ~0.74 MBq, 60 min, 37 °C, gamma counting, mean ± SEM
Procedure: as §3, §4

H1975 [6] = assay: as above; format: cell-based; details: ~0.74 MBq, 60 min, 37 °C, gamma counting, mean ± SEM
Procedure: as §3, §4

HEPG2a [7] = assay: Flow cytometry uptake of EMI-137 (c-Met expression level); format: cell-based; details: HEPG2a (negative control), 50 nM, 1 h, 37 °C
Procedure: as §3
(§5) Approximately 500,000 cells were seeded in 6-well plates and cultured for 24 h at 37 °C and 5% CO2. Cells were washed with warm PBS and incubated with 50 nM EMI-137 for 1 h at 37 °C and 5% CO2. Subsequently, cells were washed with ice-cold PBS three times prior to sample acquisition via FACS Canto flow cytometer (Becton Dickinson Immunocytometry Systems, Franklin Lakes, NJ, USA) with FACS Diva Software version 4.0.2. The obtained data were analysed using FlowJo software v7.6 (FlowJo, LLC, Ashland, OR, USA). Unstained controls were used to define gates and adjust fluorescence compensation.

HT29 [8] = assay: as above; format: cell-based; details: 50 nM, 1 h, 37 °C
Procedure: as §3, §5

OE21 [9] = assay: as above; format: cell-based; details: 50 nM, 1 h, 37 °C
Procedure: as §3, §5

H1975 [10] = assay: as above; format: cell-based; details: 50 nM, 1 h, 37 °C
Procedure: as §3, §5

H1975 cells = assay: Internalisation assay of EMI-137 by flow cytometry; format: cell-based
Procedure: as §3
H1975 cells were seeded in a 6-well plate at a seeding density of 500,000 cells/well, 24 h prior to performing internalisation assay. […] Subsequently, cells were washed with ice-cold PBS three times. To determine internalisation levels at 4 °C, surface-bound EMI-137 was removed by washing the cells with 50 mM of glycine prepared in 150 mM NaCl (Sigma) for 5 min followed by three washes with ice-cold PBS. […] Data were presented as mean Fluorescence Intensity (MFI). The internalised fraction was determined by subtracting the surface-bound EMI-137 from total EMI-137. The percentage of internalised fraction was calculated by dividing the amount of internalised EMI-137 by total-bound EMI-137 multiplied by 100%. Unstained controls were used to define gates and adjust fluorescence compensation.

## CC(=O)N[C@@H](C)C(=O)NCC(=O)N[C@@H](CO)C(=O)N[C@H]1CSSC[C@@H](C(=O)N[C@@H](Cc2ccc(O)cc2)C(=O)N[C@@H](CCC(=O)O)C(=O)N[C@H](C(=O)N[C@@H](CCC(=O)O)C(=O)NCC(=O)N[C@H](C(=O)NCC(=O)NCC(=O)NCC(=O)N[C@@H](CCCCNC(=O)CN2CCN(CC(=O)O)CCN(CC(=O)O)CC2)C(N)=O)[C@@H](C)O)[C@@H](C)O)NC(=O)[C@H](Cc2c[nH]c3ccccc23)NC(=O)[C@@H]2CSSC[C@H](NC(=O)[C@H](Cc3ccc(O)cc3)NC1=O)C(=O)N[C@@H](CO)C(=O)NCC(=O)N1CCC[C@H]1C(=O)N1CCC[C@H]1C(=O)N[C@@H](CCCNC(=N)N)C(=O)N[C@@H](Cc1ccccc1)C(=O)N[C@@H](CCC(=O)O)C(=O)N2 [[^18F]AlF-EMP-105] (Ac-AGSCYCSGPPRFECWCYETEGTGGGK(NOTA)-NH2; disulfide 4-16, 6-14)
physchem; EDTA (0.02% in 0.5 mM DPBS)
  remaining at 1 h, 9.9 MBq/mL: 99%
  remaining at 2 h, 9.9 MBq/mL: 99%
  remaining at 3 h, 9.9 MBq/mL: 98%
  remaining at 4 h, 9.9 MBq/mL: 98%
physchem; PBS
  remaining at 1 h, 9.9 MBq/mL: 98%
  remaining at 2 h, 9.9 MBq/mL: 97%
  remaining at 3 h, 9.9 MBq/mL: 95%
  remaining at 4 h, 9.9 MBq/mL: 95%
physchem; RPMI media
  remaining at 1 h, 9.9 MBq/mL: 97%
  remaining at 2 h, 9.9 MBq/mL: 97%
  remaining at 3 h, 9.9 MBq/mL: 97%
  remaining at 4 h, 9.9 MBq/mL: 92%
[1]; heart, lung and liver
  Time at which activity peaked, heart, lung and liver: 1 min
[1]; kidneys
  Time at which activity peaked, kidneys: 2.5 min
[2]; kidney, 5 min p.i.
  Percentage of [^18F]AlF-EMP-105 Remaining: 9.8 ± 12.9%
[2]; kidney, 30 min p.i.
  Percentage of [^18F]AlF-EMP-105 Remaining: 4.3 ± 4.3%
[2]; liver, 5 min p.i.
  Percentage of [^18F]AlF-EMP-105 Remaining: 6.2 ± 10.8%
[2]; liver, 30 min p.i.
  Percentage of [^18F]AlF-EMP-105 Remaining: 0.4 ± 0.7%
[2]; plasma, 5 min p.i.
  Percentage of [^18F]AlF-EMP-105 Remaining: 98.3 ± 1.1%
[2]; plasma, 30 min p.i.
  Percentage of [^18F]AlF-EMP-105 Remaining: 93.3 ± 7.4%
[2]; urine, 30 min p.i.
  Percentage of [^18F]AlF-EMP-105 Remaining: 7.9 ± 9.2%
In vitro
  remaining at 1 h, 9.9 MBq/mL: 99%
  remaining at 2 h, 9.9 MBq/mL: 99%
  remaining at 3 h, 9.9 MBq/mL: 98%
  remaining at 4 h, 9.9 MBq/mL: 97%
HEPG2a [3]
  Change in radioactive uptake when blocked with 100-fold of EMI-137: not significant; also recorded: not observed
HT29 [4]
  Change in radioactive uptake when blocked with 100-fold of EMI-137: significant decrease; also recorded: statistically significant decreases
OE21 [5]
  Change in radioactive uptake when blocked with 100-fold of EMI-137: significant decrease; also recorded: statistically significant decreases
H1975 [6]
  Change in radioactive uptake when blocked with 100-fold of EMI-137: significant decrease; also recorded: statistically significant decreases

## AGSCYCSGPPRFECWCYETEGT-Cy5 (also: cyclic, ring closure not given here) [EMI-137]
HEPG2a [7]
  Fluorescent uptake of EMI-137: low uptake
HT29 [8]
  Fluorescent uptake of EMI-137: High uptakes
OE21 [9]
  Fluorescent uptake of EMI-137: High uptakes
H1975 [10]
  Fluorescent uptake of EMI-137: High uptakes
H1975 cells; 0, 5, 15 and 30 min at 37 °C after 30 min at 4 °C, glycine wash
  Internalisation of EMI-137: increased with time
H1975 cells; 50 nM, 30 min
  Difference in uptake at 37 °C versus 4 °C: the difference was not significant
